B1: LexA (bait vector without insert) (other)
chain: MKALTARQQEVFDLIRDHISQTGMPPTRAEIAQRLGFRSPNAAEEHLKALARKGVIEIVSGASRGIRLLQEEEEGLPLVGRVAAGEPLLAQQHIEGHYQVDPSLFKPNADFLLRVSGMSMKDIGIMDGDLLAVHKTQDVRNGQVVVARIDDEVTVKRLKKQGNKVELLPENSEFKPIVVDLRQQSFTIEGLAVGVIRNGDWL
notes: range 1-202
B2: Act-CRMP5 (complete human CRMP 5 protein fused to NLS-B42-HA, prey) (other, UniProt Q9BPU6 1-564, looked up, not shown: large carriers)
chain: MLANSASVRILIKGGKVVNDDCTHEADVYIENGIIQQVGRELMIPGGAKVIDATGKLVIPGGIDTSTHFHQTFMNATCVDDFYHGTKAALVGGTTMIIGHVLPDKETSLVDAYEKCRGLADPKVCCDYALHVGITWWAPKVKAEMETLVREKGVNSFQMFMTYKDLYMLRDSELYQVLHACKDIGAIARVHAENGELVAEGAKEALDLGITGPEGIEISRPEELEAEATHRVITIANRTHCPIYLVNVSSISAGDVIAAAKMQGKVVLAETTTAHATLTGLHYYHQDWSHAAAYVTVPPLRLDTNTSTYLMSLLANDTLNIVASDHRPFTTKQKAMGKEDFTKIPHGVSGVQDRMSVIWERGVVGGKMDENRFVAVTSSNAAKLLNLYPRKGRIIPGADADVVVWDPEATKTISASTQVQGGDFNLYENMRCHGVPLVTISRGRVVYENGVFMCAEGTGKFCPLRSFPDTVYKKLVQREKTLKVRGVDRTPYLGDVAVVVHPGKKEMGTPLADTPTRPVTRHGGMRDLHESSFSLSGSQIDDHVPKRASARILAPPGGRSSGIW

Key:
[1] = target: B2; experiment: yeast two-hybrid by conjugation, lacZ reporter (X-gal)
[2] = target: T1, LexA-CRMP5 (complete human CRMP 5 protein fused to LexA, bait) (human, UniProt P0A7C2 1-202; Q9BPU6 1-564); experiment: yeast two-hybrid by conjugation, LexA bait and Act prey, lacZ reporter (X-gal)
T1 sequence (looked up): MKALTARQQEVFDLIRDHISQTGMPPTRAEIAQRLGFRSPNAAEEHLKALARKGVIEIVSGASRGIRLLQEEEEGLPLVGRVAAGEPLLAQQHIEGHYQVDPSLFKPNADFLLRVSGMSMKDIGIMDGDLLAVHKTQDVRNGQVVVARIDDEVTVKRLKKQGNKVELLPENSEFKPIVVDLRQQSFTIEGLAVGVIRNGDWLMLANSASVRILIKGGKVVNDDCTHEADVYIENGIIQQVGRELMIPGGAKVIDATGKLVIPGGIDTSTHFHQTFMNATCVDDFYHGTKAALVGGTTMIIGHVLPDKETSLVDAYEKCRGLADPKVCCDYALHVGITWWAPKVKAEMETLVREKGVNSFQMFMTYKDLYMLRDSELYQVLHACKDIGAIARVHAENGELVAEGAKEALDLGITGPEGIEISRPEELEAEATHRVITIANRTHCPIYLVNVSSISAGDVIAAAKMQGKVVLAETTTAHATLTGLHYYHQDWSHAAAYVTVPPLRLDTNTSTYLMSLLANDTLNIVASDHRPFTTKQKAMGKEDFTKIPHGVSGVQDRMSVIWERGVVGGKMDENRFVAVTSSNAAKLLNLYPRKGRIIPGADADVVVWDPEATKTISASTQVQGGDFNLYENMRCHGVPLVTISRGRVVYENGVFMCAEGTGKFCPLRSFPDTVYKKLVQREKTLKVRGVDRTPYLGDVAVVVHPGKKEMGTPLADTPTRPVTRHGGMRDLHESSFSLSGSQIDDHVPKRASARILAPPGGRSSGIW

Binder	binding result [1]	binding result [2]
B1	no binding	–
B2	–	binds

From US7820375 (INSTITUT NATIONAL DE LA SANTE ET DE LA RECHERCHE MEDICALE …, dated 2010)
